This note sets out measurements from article PMC11170971 (2024).

The target in assay [1] is T1, zTLR4ba extracellular domain, purified recombinant (zebrafish).
T1 chain: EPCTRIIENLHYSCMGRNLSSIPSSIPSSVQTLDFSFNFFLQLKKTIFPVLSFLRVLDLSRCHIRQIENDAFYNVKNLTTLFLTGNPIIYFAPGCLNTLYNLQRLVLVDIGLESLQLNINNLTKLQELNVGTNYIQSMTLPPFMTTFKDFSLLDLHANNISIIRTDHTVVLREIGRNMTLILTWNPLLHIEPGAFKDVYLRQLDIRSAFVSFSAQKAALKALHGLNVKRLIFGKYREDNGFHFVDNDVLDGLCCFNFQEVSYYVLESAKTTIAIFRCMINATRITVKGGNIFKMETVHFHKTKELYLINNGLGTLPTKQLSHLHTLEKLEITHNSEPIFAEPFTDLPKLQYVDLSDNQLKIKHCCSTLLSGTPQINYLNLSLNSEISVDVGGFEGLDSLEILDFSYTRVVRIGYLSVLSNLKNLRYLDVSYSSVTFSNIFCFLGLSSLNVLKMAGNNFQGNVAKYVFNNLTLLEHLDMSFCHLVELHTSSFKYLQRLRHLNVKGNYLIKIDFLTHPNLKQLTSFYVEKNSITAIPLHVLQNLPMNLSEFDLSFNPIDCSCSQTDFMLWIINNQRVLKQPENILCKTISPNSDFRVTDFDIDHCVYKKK
Briefly: MST.

Assay [2] deals with hTLR2 extracellular domain, purified recombinant (human, UniProt O60603 21-588). Kind of assay: MST.
Chain of hTLR2 extracellular domain, purified recombinant (O60603 21-588): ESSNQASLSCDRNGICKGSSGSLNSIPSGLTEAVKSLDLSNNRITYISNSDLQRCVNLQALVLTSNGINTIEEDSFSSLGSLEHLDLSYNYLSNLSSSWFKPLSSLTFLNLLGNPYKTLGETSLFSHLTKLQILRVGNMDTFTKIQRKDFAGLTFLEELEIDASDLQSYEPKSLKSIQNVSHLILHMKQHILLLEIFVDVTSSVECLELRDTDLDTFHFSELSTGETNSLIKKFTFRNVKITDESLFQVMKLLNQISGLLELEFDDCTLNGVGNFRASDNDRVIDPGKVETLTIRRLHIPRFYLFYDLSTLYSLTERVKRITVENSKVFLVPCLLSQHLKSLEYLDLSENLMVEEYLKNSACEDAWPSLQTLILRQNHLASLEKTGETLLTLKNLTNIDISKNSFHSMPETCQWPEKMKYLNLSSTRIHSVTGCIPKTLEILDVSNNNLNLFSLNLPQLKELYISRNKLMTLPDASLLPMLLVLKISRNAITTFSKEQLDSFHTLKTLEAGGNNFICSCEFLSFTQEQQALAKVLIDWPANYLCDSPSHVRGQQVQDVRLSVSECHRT

B1: recombinant His-tagged SpaC protein (SpaC pilin subunit of Lactobacillus rhamnosus GG) (natural protein)
chain: MTAKVARTGHLFAVLLILMSMLTGLVTSGSSVVTATDNIRPTYQTDANGTYPTNSWQVTGQQNVINQRGGDQVSGWDNNTIWNGDATDTTNSYLKFGDPNNPDYQIRKYAKETNTPGLYDVYLNVKGNKQQNVKPVDIVLVVDMSGSMESNRWGTNRAGAVRTGVKNFLTSIQNAGLGNYVNVGLIGFSSPGYIGGKSGYISVKLGKAGNASQQQAINGALSPRFQGGTYTQIGLRQGSAMLNADTSGNKKMMILLTDGVPTFSNEVINSEWINGTLYGTNFGSSRDEPGNTARLRWPYTDSSGHYIYDTWPATLGEAKIAKDSGNEVHALGIQLADDDHYMTKEKIRQNMQLITNSPDLYEDADSADAVEAYLNNQAKDIIKNFNTVTDGTITDPIGTQFQYANNQATVTSVGKQTVPASELPSAAIQDGQLTVNHMNLGQDQEVQIHYQVRIKTEDAGFKPDFWYQMNGETLLTPKAGAAAVDFGIPSGRAPATTVYVQKQWRQLSNQSLPDTLNVTVQRKVADGSLDPNWQQTLVLKKADNWKASFTAPAYNNQGQSFSYVVKSEDASGIDLSSFISSQNMDQQTATLTLTNQQYGFQFQKKTTDGTDLSADQLKAMQFNLTQYSDNSFQQASKTNAITSTDLQALAPGYYGIQEAAAPTGYQLDGTTYLFQLTSDGQWQYHGTKDNVTSGSVINGQQTLNPVGDKSDDFTVTGDHQQILTLTKYDEPKPSMTLRVIKQDNQSQYLAGAAFTLQPSAGEAETITSSATSEGQAFATKLVADGTYTMSETKAPDGYQSNPAKIAIQVATTGKEATVTIDGEALKPGESKNGYTLAIDGSTITLQAINQPLAILPHTGGQGYQRLLGIALGLISAAFLLLLVVLIKRRVVKQHD
modifications: labelled with Monolith Protein Labeling Kit Red-NHS (in the MST only)
By Kd is commonly meant the constant that tells how readily two partners part at equilibrium. With B1, the results for the equilibrium dissociation constant (Kd) in assay [1] and in assay [2] were 2.98 µM and 0.19 µM, respectively.
